T1: human PACAP38 (human, not fully specified; C-terminal lysine is amidated; N-terminal or C-terminal biotin in the HTRF and PC-12 cell binding assays)
T1 peptide: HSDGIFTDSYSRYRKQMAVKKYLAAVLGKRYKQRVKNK

T2: human PACAP27 (human, C-terminal leucine is amidated; 125I-labelled in Example 10)
T2 peptide: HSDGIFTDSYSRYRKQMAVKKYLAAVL

T3: human VIP (human)
T3 construct: also called Vasoactive Intestinal Peptide
T3 peptide: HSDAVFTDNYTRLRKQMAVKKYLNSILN


Legend:
human PACAP38 [1] = biological target: T1, human PACAP38; test: cell-based or functional assay
human PACAP38 [2] = biological target: T1, human PACAP38; test: cell-based or functional assay
human PACAP27 [3] = biological target: T2, human PACAP27; test: cell-based or functional assay
human PACAP38 [4] = biological target: T1, human PACAP38; test: HTRF binding, biotin-PACAP38
Experimental: In parallel, 10 μl of an antibody dilution series (highest final concentration of 100 nM) were incubated with 10 μl of N-terminal or C-terminal biotinylated PACAP38 (35 nM final) alone, or in combination with either PACAP27 (350 nM final) or VIP (350 nM final), i.e., 10× PACAP27 or 10×VIP, respectively, in a HTRF plate. 20 μl of Eu³⁺ cryptate labeled anti-hu Fc donor and 20 μl of d2-labeled streptavidin acceptor were added to each well and incubated for 1 hour at room temperature. Fluorescence was measured at 620 and 665 nm with a delay of 300 μsec.
EC₅₀ values, i.e. the concentration of an antibody that yields a response halfway between the baseline and the maximum value within a specified time period, were computed for each antibody based upon their binding curves and are shown in Table 1 below. […] A humanized form of antibody Ab1 was produced and is identified by an appended “.H”, i.e., Ab1.H, and it also bound PACAP38 with high affinity.

human PACAP38 [5] = biological target: T1, human PACAP38; test: cell-based or functional assay
human PACAP38 [6] = biological target: T1, human PACAP38; test: SPR, Ab immobilised
Experimental: (§1) Binding affinities of monoclonal antibodies for human PACAP were estimated using SPR on the PROTEON™ XPR36 (Bio-Rad, Hercules, Calif.). Antibody was immobilized to the surface of general amine coupling (“GLC” or “GLM”) Chips (Bio-Rad, Hercules, Calif.). A dilution series of human PACAP38 (SEQ ID NO: 1241) prepared in 1×PBST Buffer (4.3 mM Na Phosphate, 1.4 mM K Phosphate, 135 mM NaCl, 2.7 mM KCl 0.05% Polysorbate-20) purchased from Teknova (Cat# P1192, Teknova, Hollister, Calif.) and supplemented with 0.25 M arginine (from J.T. BAKER®), 0.2 mg/ml BSA (Jackson Immuno Research Labs, West Grove, Pa.), and 0.005% sodium azide (VWR International, Radnor, Pa.) with the pH adjusted to 7 was used to query the antibodies. Antigen (ranging from 1.23 nM to 100 nM) was typically run sequentially with association times of 2-4 minutes and dissociation times of 3-120 minutes grouped with the PROTEON™ Manager Software (v3.1.0.6 (Bio-Rad, Hercules, Calif.)) and fitted using a 1:1 Langmuir binding model. Surfaces were regenerated between analyte queries using 0.85% Phosphoric Acid.

human VIP = biological target: T3, human VIP; test: SPR, Ab immobilised
Experimental: [The procedure below names another target; the source says it served here with some conditions changed.] as §1

human PACAP27 [7] = biological target: T2, human PACAP27; test: SPR, Ab immobilised
Experimental: [The procedure below names another target; the source says it served here with some conditions changed.] as §1

human PACAP38 [8] = biological target: T1, human PACAP38; test: inhibition of 100 nM biotin-PACAP38 binding to PC-12 cells, TRF
Experimental: To identify antibodies that block PACAP38 binding to PAC1-R-expressing cells, adherent PC-12 cells (ATCC, Manassas, Va.) expressing PAC1-R were used in a Europium-based PAC1-R expressing cells binding assay.
Antibody solutions were incubated with N-terminal biotinylated PACAP38 at 10× the final concentration (100 nM or 30 nM) for 1 hr, then added to PC-12 cells that were plated 24 hrs. prior in black clear bottom 96 well plates (COSTAR™, Corning Incorporated, Corning, N.Y.) and further incubated for 1 hr at room temperature. After three washes, the cells were incubated with 20 μl Europium-labeled streptavidin (PerkinElmer, Waltham, Mass.) for 1 hr at room temperature. Cells were washed three times, then 20 μl DELFIA® Enhancement solution (PerkinElmer, Waltham, Mass.) was added to each well and incubated for 15 minutes with gentle shaking. Plates were read (Time Resolved Fluorescence (“TRF”)) on SPECTRAMAX® (Molecular Devices, Sunnyvale, Calif.) plate reader.
FIGS. 14A-14BB are representative of the inhibition curves obtained by this method (results are shown for Ab1, Ab2, Ab3, Ab4, Ab5, Ab6, Ab7, Ab8, Ab9, Ab10, Ab11, Ab12, Ab13, Ab14, Ab15, Ab16, Ab17, Ab18, Ab19, Ab1.H, Ab10.H, Ab22, Ab23, Ab3.H, Ab4.H, Ab5.H, Ab9.H, and Ab12.H, respectively) wherein the PAC1-R expressing cells were PC-12 cells.

Row | Binder | IC50, 5 nM PACAP38-induced human VPAC1-R mediated cAMP increase (human PACAP38 [1]) [nM] | IC50, 0.1 nM PACAP38-induced PAC1-R mediated cAMP increase (human PACAP38 [2]) [nM] | IC50, 0.1 nM PACAP27-induced PAC1-R mediated cAMP increase (human PACAP27 [3]) [nM] | EC50 (human PACAP38 [4]) [nM] | IC50, 1 nM PACAP38-induced human VPAC2-R mediated cAMP increase (human PACAP38 [5]) [nM] | Kd (human PACAP38 [6]) [nM] | koff (human PACAP38 [6]) [s⁻¹] | kon (human PACAP38 [6]) [M⁻¹ s⁻¹] | Kd (human VIP) [nM] | koff (human VIP) [s⁻¹] | kon (human VIP) [M⁻¹ s⁻¹] | Kd (human PACAP27 [7]) [nM] | koff (human PACAP27 [7]) [s⁻¹] | kon (human PACAP27 [7]) [M⁻¹ s⁻¹] | IC50 (human PACAP38 [8]) [nM]
1 | anti-PACAP antibody Ab16 (antibody, human IgG1, kappa, N297A, V domains shown, full-length rabbit/human chimeric antibody) VH: QSVEESGGRLVTPGTPLTLTCTVSGFSLSSAAMSWVRQAPGKGLEWIGIIDDSGNTYYASWAKARFTISKTSSTTVDLKMTSPTTEDTATYFCARGGGEFFIWGPGTLVTVSS VL: DPVLTQTPSSVSAAVGGTVTINCQSSQSVYNNKWLSWYQQKPGQSPKFLIYQASNLASGVPSRFKGSGSGTQFTLTISDLECDDGATYYCAGGYRGNVCGFGGGTEVVVKR | 3.53 | 0.212 | 0.192 | 0.68 | 1.15 | ≤ 0.011 | ≤ 1e-05 | 910000 | 260 | 0.096 | 360000 | 0.035 | 2.9e-05 | 820000 | 27.3
2 | anti-PACAP antibody Ab17 (antibody, human IgG1, kappa, N297A, V domains shown, full-length rabbit/human chimeric antibody) VH: QSVEESGGRLVTPGTPLTLTCTVSGFSLSSAAMNWVRQAPGKGLEWIGIFDPYSSTYYASWAKGRFTISKTSSTTVDLKMTSPTTEDTATYFCARGGGEFFIWGPGTLVTVSS VL: AQVLTQTPSSVSAAVGGTVTINCQSSQSVYKNKYLSWYQQKVGQPPKFLIYQASNLASGVPSRFKGSGSGTQFTLTISDLECDDAATYYCAGGYSGNMVDFGGGTEVVVKR | 0.78 | 0.0977 | 0.0776 | 0.46 | 0.205 | ≤ 0.02 | ≤ 1e-05 | 500000 | 55 | 0.017 | 310000 | ≤ 0.027 | ≤ 1e-05 | 370000 | 33.1
3 | anti-PACAP antibody Ab4 (antibody, human IgG1, kappa, N297A, V domains shown, full-length rabbit/human chimeric antibody) VH: QSVEESGGRLVTPGTPLTLTCTVSGFSLSSYDMSWVRQAPGKGLEYIGIINTNDDTWYASWVKGRFTISKTSSTTVDLKMTSLTTEDTATYFCARISDAYVFDYAYYFTLWGQGTLVTVSS VL: ALVMTQTPSSVSAAVGGTVTINCLASQNIYNSLAWYQQKPGQPPKLLIYRASTLASGVSSRFKGSGSGTQFTLTISGVECADAATYYCQQGAGADNIGNPFGGGTEVVVKR | 0.943 | 0.34 | 0.0769 | 0.66 | 0.218 | 0.22 | 7.2e-05 | 330000 | 120 | 0.021 | 170000 | 0.51 | 0.0002 | 390000 | 28.6
4 | anti-PACAP antibody Ab5 (antibody, human IgG1, kappa, N297A, V domains shown, full-length rabbit/human chimeric antibody) VH: QSVEESGGRLVTPGTPLTLTCTVSGFSLSSYAMIWVRQAPGKGLEWIGIIYDNGDTYYASWAKGRFTISKTSTTVYLKIASPTTEDTATYFCAREPGSTTQNDLWGQGTLVTVSS VL: DVVMTQTPASVSEPVGGTVTIKCQASENIYNSLLWYQQKPGQPPKLLIYRASTLASGVSSRFKGSGSGTEFTLTISDLECADAATYYCQNYYNIWTNGAAFGGGTEVVVKR | 0.721 | 0.327 | 0.353 | 0.6 | 0.239 | ≤ 0.041 | ≤ 1e-05 | 240000 | 7200 | 0.86 | 120000 | 0.096 | 2.4e-05 | 250000 | 16.3

The remaining binders from weak to strong by EC50 (human PACAP38 [4]), led by results:

Row | IC50, 5 nM PACAP38-induced human VPAC1-R mediated cAMP increase (human PACAP38 [1]) [nM] | IC50, 0.1 nM PACAP38-induced PAC1-R mediated cAMP increase (human PACAP38 [2]) [nM] | IC50, 0.1 nM PACAP27-induced PAC1-R mediated cAMP increase (human PACAP27 [3]) [nM] | EC50 (human PACAP38 [4]) [nM] | IC50, 1 nM PACAP38-induced human VPAC2-R mediated cAMP increase (human PACAP38 [5]) [nM] | Kd (human PACAP38 [6]) [nM] | koff (human PACAP38 [6]) [s⁻¹] | kon (human PACAP38 [6]) [M⁻¹ s⁻¹] | Kd (human VIP) [nM] | koff (human VIP) [s⁻¹] | kon (human VIP) [M⁻¹ s⁻¹] | Kd (human PACAP27 [7]) [nM] | koff (human PACAP27 [7]) [s⁻¹] | kon (human PACAP27 [7]) [M⁻¹ s⁻¹] | IC50 (human PACAP38 [8]) [nM] | Binder
5 | 3.71 | 0.162 | 0.155 | 0.62 | 22.9 | 0.05 | 2.7e-05 | 530000 | 820 | 0.13 | 160000 | 0.17 | 7.8e-05 | 470000 | 36.7 | anti-PACAP antibody Ab15 (antibody, human IgG1, kappa, N297A, V domains shown, full-length rabbit/human chimeric antibody) VH: QSVEASGGHLVTPGTPLTLTCTVSGFSLSSAAMNWVRQAPGKGLEWIGSVDERQNKYYASWAKGRFTISRTSSTTVNLKMTSPTTEDTATYFCARGGGEFFIWGQGTLVTVSS VL: AQVLTQTPSSVSAAVGGTVTINCQSSQSVYSNNRLSWYQQKPGQPPNLLIYEASSLASGVPSRFSGSGSGTQFTLTISDLECDDAATYYCAGAYNTGIYGFGGGTEVVVKR
6 | 0.911 | 0.118 | 0.0916 | 0.48 | 0.285 | ≤ 0.023 | ≤ 1e-05 | 430000 | 400 | 0.12 | 310000 | ≤ 0.023 | ≤ 1e-05 | 440000 | 30.6 | anti-PACAP antibody Ab18 (antibody, human IgG1, kappa, N297A, V domains shown, full-length rabbit/human chimeric antibody) VH: QSVEESGGRLVTPGTPLTLTCTVSGFSLSSAALSWVRQAPGKGLEWIGIIDKGVMSYYASWAKGRFTISKTSSTTVDLKVTSPTTEDTATYFCARGGGEFFIWGQGTLVTVSS VL: AQVLTQTPSSVSAAVGGTVTINCQSSKSVYNNNWLSWYQQKPGQPPKFLIYQASNLASGVPSRFKGSGSGTQFTLTISDLECDDAATYYCAGGYSGNIVGFGGGTEVVVKR
7 | 0.827 | 0.101 | 0.0874 | 0.43 | 0.954 | 0.093 | 2.5e-05 | 270000 | 1000 | 0.28 | 280000 | 0.31 | 0.00013 | 420000 | 162 | anti-PACAP antibody Ab19 (antibody, human IgG1, kappa, N297A, V domains shown, full-length rabbit/human chimeric antibody) VH: QSVEASGGRLVTPGTPLTLTCTVSGFSLSSATMNWVRQAPGKGLEWIGLIGGNDERYYASWAKGRFTISKTSSTTVDLKMTSPTTEDTATYFCARGGGEFFIWGPGTLVTVSS VL: AQVLTQTPSSVSAAVGGTVTINCQSSESVYTNDRLSWYQQKPGQPPKLLIYEASKLASGVPPRFSGSGSGTQFTLTISDLECDDAATYYCAGAYSTSIHGFGGGTEVVVKR

From US20190233498A1 (H LUNDBECK A S, published 2019)
